Measured values: the supplement of paper PMC5998384

Key:
HeLa Kyoto [1] = assay: solubility in G1/S (NP-40 vs SDS abundance) (log2 ratio); higher = more soluble; conditions: cell cycle stage: G1/S
HeLa Kyoto [2] = assay: solubility change mitosis vs G1/S (difference of NP-40 vs SDS log2 ratios) (log2 ratio difference); higher = more soluble in mitosis
HeLa Kyoto [3] = assay: thermal stability score vs G1/S (z-score of summed log2 fold changes over temperatures); higher = more thermally stable than in G1/S
HeLa Kyoto [4] = assay: melting temperature (median over replicates), in situ; higher = more thermally stable
[5] = cell cycle stage: early G1 (4.5 h after nocodazole release)
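Wherever melting temperature (median over replicates), in situ is given: HeLa Kyoto cells synchronized by double thymidine or nocodazole block, proteins quantified by TMT10plex mass spectrometry, three independent biological replicates.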
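Wherever solubility change mitosis vs G1/S (difference of NP-40 vs SDS log2 ratios) is given: synchronized HeLa Kyoto cells (double thymidine block for G1/S, nocodazole release for mitosis), protein amounts in NP-40 versus SDS lysates quantified by mass spectrometry, three biological replicates.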
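Wherever solubility in G1/S (NP-40 vs SDS abundance) is given: HeLa Kyoto cells arrested at G1/S by double thymidine block, proteins quantified by TMT10plex mass spectrometry in mild NP-40 versus SDS extracts, three biological replicates.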
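Wherever thermal stability score vs G1/S (z-score of summed log2 fold changes over temperatures) is given: synchronized HeLa Kyoto cells, proteins quantified by TMT10plex mass spectrometry, three biological replicates, mitosis taken 0.5 h after nocodazole release, G1/S directly after double thymidine block.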

Row | Sequence | solubility in G1/S (log2) (HeLa Kyoto [1]) | solubility change mitosis (log2) (HeLa Kyoto [2]) | thermal stability score (HeLa Kyoto [3]; [5]) | thermal stability score (HeLa Kyoto [3]; cell cycle stage: mitosis) | melting temperature (HeLa Kyoto [4]; cell cycle stage: G1/S) | melting temperature (HeLa Kyoto [4]; cell cycle stage: mitosis)
1 | MERASERRTASALFAGFRALGLFSNDIPHVVRFSALKRRFYVTTCVGKSFHTYDVQKLSLVAVSNSVPQDICCMAADGRLVFAAYGNVFSAFARNKEIVHTFKGHKAEIHFLQPFGDHIISVDTDGILIIWHIYSEEEYLQLTFDKSVFKISAILHPSTYLNKILLGSEQGSLQLWNVKSNKLLYTFPGWKVGVTALQQAPAVDVVAIGLMSGQVIIHNIKFNETLMKFRQDWGPITSISFRTDGHPVMAAGSPCGHIGLWDLEDKKLINQMRNAHSTAIAGLTFLHREPLLVTNGADNALRIWIFDGPTGEGRLLRFRMGHSAPLTNIRYYGQNGQQILSASQDGTLQSFSTVHEKFNKSLGHGLINKKRVKRKGLQNTMSVRLPPITKFAAEEARESDWDGIIACHQGKLSCSTWNYQKSTIGAYFLKPKELKKDDITATAVDITSCGNFAVIGLSSGTVDVYNMQSGIHRGSFGKDQAHKGSVRGVAVDGLNQLTVTTGSEGLLKFWNFKNKILIHSVSLSSSPNIMLLHRDSGILGLALDDFSISVLDIETRKIVREFSGHQGQINDMAFSPDGRWLISAAMDCSIRTWDLPSGCLIDCFLLDSAPLNVSMSPTGDFLATSHVDHLGIYLWSNISLYSVVSLRPLPADYVPSIVMLPGTCQTQDVEVSEETVEPSDELIEYDSPEQLNEQLVTLSLLPESRWKNLLNLDVIKKKNKPKEPPKVPKSAPFFIPTIPGLVPRYAAPEQNNDPQQSKVVNLGVLAQKSDFCLKLEEGLVNNKYDTALNLLKESGPSGIETELRSLSPDCGGSIEVMQSFLKMIGMMLDRKRDFELAQAYLALFLKLHLKMLPSEPVLLEEITNLSSQVEENWTHLQSLFNQSMCILNYLKSALL [WDR36] | -1.46 | 0.613 | 0.383 | 0.754 | 50.5 °C | 50.8 °C
2 | MERAVPLAVPLGQTEVFQALQRLHMTIFSQSVSPCGKFLAAGNNYGQIAIFSLSSALSSEAKEESKKPVVTFQAHDGPVYSMVSTDRHLLSAGDGEVKAWLWAEMLKKGCKELWRRQPPYRTSLEVPEINALLLVPKENSLILAGGDCQLHTMDLETGTFTRVLRGHTDYIHCLALRERSPEVLSGGEDGAVRLWDLRTAKEVQTIEVYKHEECSRPHNGRWIGCLATDSDWMVCGGGPALTLWHLRSSTPTTIFPIRAPQKHVTFYQDLILSAGQGRCVNQWQLSGELKAQVPGSSPGLLSLSLNQQPAAPECKVLTAAGNSCRVDVFTNLGYRAFSLSF [THOC6] | -0.108 | 0.108 | -0.465 | -0.675 | 51.8 °C | 51.2 °C
3 | MERPPGLRPGAGGPWEMRERLGTGGFGNVCLYQHRELDLKIAIKSCRLELSTKNRERWCHEIQIMKKLNHANVVKACDVPEELNILIHDVPLLAMEYCSGGDLRKLLNKPENCCGLKESQILSLLSDIGSGIRYLHENKIIHRDLKPENIVLQDVGGKIIHKIIDLGYAKDVDQGSLCTSFVGTLQYLAPELFENKPYTATVDYWSFGTMVFECIAGYRPFLHHLQPFTWHEKIKKKDPKCIFACEEMSGEVRFSSHLPQPNSLCSLVVEPMENWLQLMLNWDPQQRGGPVDLTLKQPRCFVLMDHILNLKIVHILNMTSAKIISFLLPPDESLHSLQSRIERETGINTGSQELLSETGISLDPRKPASQCVLDGVRGCDSYMVYLFDKSKTVYEGPFASRSLSDCVNYIVQDSKIQLPIIQLRKVWAEAVHYVSGLKEDYSRLFQGQRAAMLSLLRYNANLTKMKNTLISASQQLKAKLEFFHKSIQLDLERYSEQMTYGISSEKMLKAWKEMEEKAIHYAEVGVIGYLEDQIMSLHAEIMELQKSPYGRRQGDLMESLEQRAIDLYKQLKHRPSDHSYSDSTEMVKIIVHTVQSQDRVLKELFGHLSKLLGCKQKIIDLLPKVEVALSNIKEADNTVMFMQGKRQKEIWHLLKIACTQSSARSLVGSSLEGAVTPQTSAWLPPTSAEHDHSLSCVVTPQDGETSAQMIEENLNCLGHLSTIIHEANEEQGNSMMNLDWSWLTE [CHUK] | 0.0423 | -0.139 | 0.418 | 1.15 | 48.7 °C | 49.1 °C
4 | MERQKRKADIEKGLQFIQSTLPLKQEEYEAFLLKLVQNLFAEGNDLFREKDYKQALVQYMEGLNVADYAASDQVALPRELLCKLHVNRAACYFTMGLYEKALEDSEKALGLDSESIRALFRKARALNELGRHKEAYECSSRCSLALPHDESVTQLGQELAQKLGLRVRKAYKRPQELETFSLLSNGTAAGVADQGTSNGLGSIDDIETDCYVDPRGSPALLPSTPTMPLFPHVLDLLAPLDSSRTLPSTDSLDDFSDGDVFGPELDTLLDSLSLVQGGLSGSGVPSELPQLIPVFPGGTPLLPPVVGGSIPVSSPLPPASFGLVMDPSKKLAASVLDALDPPGPTLDPLDLLPYSETRLDALDSFGSTRGSLDKPDSFMEETNSQDHRPPSGAQKPAPSPEPCMPNTALLIKNPLAATHEFKQACQLCYPKTGPRAGDYTYREGLEHKCKRDILLGRLRSSEDQTWKRIRPRPTKTSFVGSYYLCKDMINKQDCKYGDNCTFAYHQEEIDVWTEERKGTLNRDLLFDPLGGVKRGSLTIAKLLKEHQGIFTFLCEICFDSKPRIISKGTKDSPSVCSNLAAKHSFYNNKCLVHIVRSTSLKYSKIRQFQEHFQFDVCRHEVRYGCLREDSCHFAHSFIELKVWLLQQYSGMTHEDIVQESKKYWQQMEAHAGKASSSMGAPRTHGPSTFDLQMKFVCGQCWRNGQVVEPDKDLKYCSAKARHCWTKERRVLLVMSKAKRKWVSVRPLPSIRNFPQQYDLCIHAQNGRKCQYVGNCSFAHSPEERDMWTFMKENKILDMQQTYDMWLKKHNPGKPGEGTPISSREGEKQIQMPTDYADIMMGYHCWLCGKNSNSKKQWQQHIQSEKHKEKVFTSDSDASGWAFRFPMGEFRLCDRLQKGKACPDGDKCRCAHGQEELNEWLDRREVLKQKLAKARKDMLLCPRDDDFGKYNFLLQEDGDLAGATPEAPAAAATATTGE [ZC3H7B] | -0.354 | 0.118 | 1.16 | 1.26 | 48 °C | 47.6 °C
